Source: patent publication US20230332136A1, “IL-17 RECEPTOR MODULATOR SCREENING SYSTEM” (New York University, priority 2022, published 2023)
Values belong to the molecule of their own block, whether it stands above or below them.

How the values were obtained:
[1] = biological target: T1, hIL-17RA/RC (Homo sapiens, UniProt Q8NAC3+Q96F46); experiment: hADIR-17 dmCherry reporter assay (clonal cell line); format: cell-based; conditions: activator screen, increasing doses (FIG. 12)
T1 construct: expressed in transfected cells; host or cells: MEF cells stably transduced with retroviral constructs (clonal hADIR-17 line)
T1 sequence (Q96F46 33-866): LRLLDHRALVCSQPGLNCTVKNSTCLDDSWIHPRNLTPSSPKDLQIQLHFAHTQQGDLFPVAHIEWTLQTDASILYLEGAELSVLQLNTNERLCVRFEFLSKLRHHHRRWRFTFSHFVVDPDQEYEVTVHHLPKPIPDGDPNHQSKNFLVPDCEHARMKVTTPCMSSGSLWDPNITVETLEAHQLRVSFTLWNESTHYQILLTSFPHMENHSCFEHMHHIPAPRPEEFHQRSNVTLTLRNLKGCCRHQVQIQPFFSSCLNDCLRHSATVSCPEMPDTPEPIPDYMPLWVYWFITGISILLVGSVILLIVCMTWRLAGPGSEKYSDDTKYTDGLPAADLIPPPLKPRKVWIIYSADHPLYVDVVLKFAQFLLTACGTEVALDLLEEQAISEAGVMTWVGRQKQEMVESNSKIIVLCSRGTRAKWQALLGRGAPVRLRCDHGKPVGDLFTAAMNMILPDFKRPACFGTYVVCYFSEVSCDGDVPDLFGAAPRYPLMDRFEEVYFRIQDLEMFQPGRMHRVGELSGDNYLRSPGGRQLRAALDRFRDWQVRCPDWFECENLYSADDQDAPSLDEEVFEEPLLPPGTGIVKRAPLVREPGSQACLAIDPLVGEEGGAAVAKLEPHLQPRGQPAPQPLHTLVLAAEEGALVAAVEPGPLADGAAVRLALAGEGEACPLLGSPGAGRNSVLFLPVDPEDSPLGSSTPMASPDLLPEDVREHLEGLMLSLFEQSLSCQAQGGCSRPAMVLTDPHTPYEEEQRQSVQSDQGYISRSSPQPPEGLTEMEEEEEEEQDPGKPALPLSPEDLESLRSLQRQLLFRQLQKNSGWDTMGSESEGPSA
T1 sequence (Q8NAC3 21-705 isoform Q8NAC3-3 limits assumed): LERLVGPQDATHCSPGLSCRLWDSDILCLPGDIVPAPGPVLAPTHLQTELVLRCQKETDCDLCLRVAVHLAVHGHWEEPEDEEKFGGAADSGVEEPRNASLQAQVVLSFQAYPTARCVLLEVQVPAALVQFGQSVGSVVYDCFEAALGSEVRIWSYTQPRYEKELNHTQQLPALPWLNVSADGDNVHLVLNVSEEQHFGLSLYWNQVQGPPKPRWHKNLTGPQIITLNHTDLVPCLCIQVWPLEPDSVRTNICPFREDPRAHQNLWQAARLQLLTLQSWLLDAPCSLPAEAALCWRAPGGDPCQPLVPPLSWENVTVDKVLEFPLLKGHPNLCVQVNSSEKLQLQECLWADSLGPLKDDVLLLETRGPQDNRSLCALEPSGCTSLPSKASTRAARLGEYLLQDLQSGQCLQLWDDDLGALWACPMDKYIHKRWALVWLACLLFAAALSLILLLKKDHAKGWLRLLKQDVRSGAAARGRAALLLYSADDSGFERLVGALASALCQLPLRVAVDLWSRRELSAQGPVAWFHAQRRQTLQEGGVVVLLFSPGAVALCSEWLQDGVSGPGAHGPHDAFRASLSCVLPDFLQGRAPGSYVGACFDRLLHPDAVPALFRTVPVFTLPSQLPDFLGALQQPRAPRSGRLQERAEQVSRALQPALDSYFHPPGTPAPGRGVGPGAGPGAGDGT
Description: FIG. 9 provides a graphical depiction of constructs for use with human IL-17 receptors. Similar retroviral transfer plasmid constructs as mouse, with human cDNA sequences replacing mouse cDNA. Exogenous hIL-17RA is provided for a functional hADIR system. hIL-17RC, RB, RE constructs are added last separately to MEF cells already stably transduced with the other three required components, generating 3 independent cell lines.
(§1) Mouse constructs were produced as depicted in the panels of FIG. 1. Human sequence constructs were produced as in the panels of FIG. 9, where mouse cDNA constructs were replaced by human cDNA constructed. In the mouse ADIR system exogenous IL-17RC was not provided because the cell line (mouse embryonic fibroblasts) have endogenous IL-17RC expression. In the hADIR system, human components used for the hADIR system (hRA, hRC, hRB, hAct1) were expressed from added polynucleotides.
The data reflected in the Figures utilized a reporter system specifically designed for Act1-dependent IL-17 signaling pathways. The reporter system is based at least in part on the principle that the engagement of active cognate ligands, and the interaction between Act1 and IL-17 receptors is required for active signaling of IL-17A/F, IL-17E, and IL-17C. The protein-protein-interaction (PPI) based reporter system is highly specific and easily scalable. The disclosure is illustrated using mouse and human systems. For the data presented in the Figures, the system comprised a three-part reporter system specifically designed for detecting IL-17A/F, IL-17E, and IL-17C signaling. The PPI-based reporter system provides for detecting active signaling, and is specific for each of the IL-17 family cytokines. […] Each of the retroviral vectors can contain a unique selection or fluorescent marker to enable efficient generation and maintenance of stable cell lines (for example, Puromycin resistance for m/hIL-17RC(RB, RE)-TSC-tTA; EBFP for m/hAct1-TEV; Neomycin resistance and mVenus fluorescence for TRE-dmCherry-PEST, and Thy1.1 for m/hRA).

[2] = biological target: T2, IL-17RA/RC (Mus musculus, UniProt Q60943+Q8K4C2); experiment: mADIR-17 dmCherry reporter assay in MEF cells (flow cytometry); format: cell-based; conditions: for dmCherry signal produced: after 24 hrs (FIG. 7)
T2 construct: Full length IL-17RC in the purified ADIR system; expressed in transfected cells; host or cells: mouse embryonic fibroblasts (MEF), retrovirally transduced
T2 sequence (Q60943 32-864): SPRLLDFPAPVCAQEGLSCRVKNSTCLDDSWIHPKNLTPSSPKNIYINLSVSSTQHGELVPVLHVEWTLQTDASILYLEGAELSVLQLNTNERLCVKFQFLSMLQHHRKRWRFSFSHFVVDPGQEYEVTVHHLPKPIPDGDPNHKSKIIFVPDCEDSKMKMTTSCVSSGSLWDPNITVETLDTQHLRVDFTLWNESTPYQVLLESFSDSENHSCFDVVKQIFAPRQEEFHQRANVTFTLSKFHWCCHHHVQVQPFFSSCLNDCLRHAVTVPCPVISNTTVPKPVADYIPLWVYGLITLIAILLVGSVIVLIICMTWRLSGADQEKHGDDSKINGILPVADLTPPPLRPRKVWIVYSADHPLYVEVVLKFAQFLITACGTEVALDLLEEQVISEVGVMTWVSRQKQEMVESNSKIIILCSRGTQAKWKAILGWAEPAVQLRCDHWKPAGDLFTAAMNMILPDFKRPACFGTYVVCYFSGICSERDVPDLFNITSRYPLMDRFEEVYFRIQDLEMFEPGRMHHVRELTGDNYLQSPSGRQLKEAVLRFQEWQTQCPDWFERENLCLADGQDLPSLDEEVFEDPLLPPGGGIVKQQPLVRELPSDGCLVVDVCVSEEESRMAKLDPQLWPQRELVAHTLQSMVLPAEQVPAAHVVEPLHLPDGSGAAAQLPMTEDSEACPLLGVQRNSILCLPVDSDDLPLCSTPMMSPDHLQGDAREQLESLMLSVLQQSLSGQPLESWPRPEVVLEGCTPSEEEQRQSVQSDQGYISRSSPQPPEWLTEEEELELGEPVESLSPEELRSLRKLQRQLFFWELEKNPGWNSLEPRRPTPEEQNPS
T2 sequence (Q8K4C2 22-698): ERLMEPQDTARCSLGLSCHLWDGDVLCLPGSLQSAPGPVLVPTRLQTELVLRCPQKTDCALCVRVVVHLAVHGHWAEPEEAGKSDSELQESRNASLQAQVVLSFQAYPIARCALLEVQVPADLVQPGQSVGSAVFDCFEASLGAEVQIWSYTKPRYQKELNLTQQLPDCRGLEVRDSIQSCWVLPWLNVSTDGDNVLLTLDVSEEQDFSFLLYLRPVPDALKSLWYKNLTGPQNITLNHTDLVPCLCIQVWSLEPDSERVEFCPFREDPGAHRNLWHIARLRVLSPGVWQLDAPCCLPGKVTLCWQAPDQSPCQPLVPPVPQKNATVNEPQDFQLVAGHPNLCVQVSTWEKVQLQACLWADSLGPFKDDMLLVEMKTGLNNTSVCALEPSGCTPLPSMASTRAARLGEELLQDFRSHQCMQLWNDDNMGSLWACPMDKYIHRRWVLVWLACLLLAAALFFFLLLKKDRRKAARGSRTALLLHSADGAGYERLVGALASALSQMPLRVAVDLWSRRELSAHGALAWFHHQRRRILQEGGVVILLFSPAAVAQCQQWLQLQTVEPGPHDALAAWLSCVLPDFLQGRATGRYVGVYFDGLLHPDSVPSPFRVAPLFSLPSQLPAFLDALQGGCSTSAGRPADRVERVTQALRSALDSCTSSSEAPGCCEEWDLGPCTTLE
Excerpt: Unless defined otherwise herein, all technical and scientific terms used in this disclosure have the same meaning as commonly understood by one of ordinary skill in the art to which this disclosure pertains. Where the term “ADIR” is used herein it means ACT1-Dependent IL-17 Receptor Modulator Screening System. The preface “m” means mouse and the prefix “h” means human.
as §1
The data reflected in the Figures utilized a reporter system specifically designed for Act1-dependent IL-17 signaling pathways. The reporter system is based at least in part on the principle that the engagement of active cognate ligands, and the interaction between Act1 and IL-17 receptors is required for active signaling of IL-17A/F, IL-17E, and IL-17C. The protein-protein-interaction (PPI) based reporter system is highly specific and easily scalable. The disclosure is illustrated using mouse and human systems. For the data presented in the Figures, the system comprised a three-part reporter system specifically designed for detecting IL-17A/F, IL-17E, and IL-17C signaling. The PPI-based reporter system provides for detecting active signaling, and is specific for each of the IL-17 family cytokines. The system that is responsive to binding of IL-17A and IL-17F comprises (1) an Act1-tobacco etch virus (TEV) protease fusion protein, which upon active IL-17A/F binding to the IL-17RA/RC receptor heterodimer on a target cell, will be recruited to (2) IL-17RC fused with a TEV cleavage site(TSC)-tTA (a transcriptional transactivator that binds to tetracycline responsive element, or TRE), releasing tTA, which will subsequently translocate into the nucleus where a (3) TRE-dmCherry-PEST (destabilized mCherry) element is integrated into the genome. tTA binds to the TRE to drive dmCherry expression in the target modified cell. The three described components, Act1-TEV, IL-17RC-TSC-tTA, and TRE-dmCherry-PEST, along with IL-17RA, can be delivered by retro or lenti-viral vectors or guide-RNA directed nucleases, or recombinase systems, or by homologous recombination, into mouse embryonic fibroblasts (MEF) or other mammalian cell lines, establishing stable reporter cell lines. Using the same principle, IL-17RC-TSC-tTA can be replaced with IL-17RB-TSC-tTA in the described system to provide for IL-17E (IL-25) binding, and with IL-17RE-TSC-tTA for detecting IL-17C binding. A parallel approach involves attaching the fusion protein of —TSC-tTA to the RA component and three independent system cell lines generated by supplementing RC/RB/RE, Act1-TEV, and TRE-dmCherry reporter components. Each of the retroviral vectors can contain a unique selection or fluorescent marker to enable efficient generation and maintenance of stable cell lines (for example, Puromycin resistance for m/hIL-17RC(RB, RE)-TSC-tTA; EBFP for m/hAct1-TEV; Neomycin resistance and mVenus fluorescence for TRE-dmCherry-PEST, and Thy1.1 for m/hRA).

dmCherry signal response of hADIR-17 clone to ligand [1]: dose-dependent response
Molecule: hIL-17F: human IL-17F cytokine, cognate ligand in the hADIR-17 system

dmCherry signal response of hADIR-17 clone to ligand [1]: dose-dependent response
Molecule: hIL-17A: human IL-17A cytokine, cognate ligand in the hADIR-17 system

dmCherry signal produced ([2]; 0.4 ng/ml): 0.48%
dmCherry signal produced ([2]; 2 ng/ml): 0.81%
dmCherry signal produced ([2]; 10 ng/ml): 3.32%
dmCherry signal produced ([2]; 50 ng/ml): 13.8%
B1: IL-17F: mouse IL-17 family cytokine, cognate ligand of IL-17RA/RC (protein, UniProt Q7TNI7 29-161, looked up)
Interleukin-17F: RKNPKAGVPALQKAGNCPPLEDNTVRVDIRIFNQNQGISVPREFQNRSSSPWDYNITRDPHRFPSEIAEAQCRHSGCINAQGQEDSTMNSVAIQQEILVLRREPQGCSNSFRLEKMLLKVGCTCVKPIVHQAA

dmCherry signal response of hADIR-17 clone to ligand [1]: does not respond
B2: hIL-25: human IL-25, non-cognate ligand for hADIR-17; cognate ligand of the hADIR-25 system (protein, UniProt Q9H293 33-177, looked up)
Interleukin-25: YSHWPSCCPSKGQDTSEELLRWSTVPVPPLEPARPNRHPESCRASEDGPLNSRAISPWRYELDRDLNRLPQDLYHARCLCPHCVSLQTGSHMDPRGNSELLYHNQTVFYRRPCHGEKGTHKGYCLERRLYRVSLACVCVRPRVMG

responsiveness of mADIR-17 cells (dmCherry signal) to ligand ([2]; noncognate ligand, any doses, after 24 hrs, listed as mIL-17E): not responsive
B3: IL-25: IL-25 (IL17E), noncognate ligand for the mADIR-17 system; binds IL-17RA/RB (protein, UniProt Q8VHH8 17-169, looked up)
Interleukin-25: VSLRIQEGCSHLPSCCPSKEQEPPEEWLKWSSASVSPPEPLSHTHHAESCRASKDGPLNSRAISPWSYELDRDLNRVPQDLYHARCLCPHCVSLQTGSHMDPLGNSVPLYHNQTVFYRRPCHGEEGTHRRYCLERRLYRVSLACVCVRPRVMA
